One molecule from patent publication KR20220012810A (dated 2022) can be followed below.

The target in assay [1] is SARS-CoV-2 spike D614 (pseudovirus) (SARS-CoV-2, UniProt P0DTC2 14-1273). Kind of assay: cell-based or functional assay.
Another assay has as its target SARS-CoV S1 (SARS-CoV, UniProt P59594 14-667). Kind of assay: BLI (Octet). In general terms: Biolayer interferometry detects binding as a change in optical thickness at a sensor tip.
The target of the next assay is T1, MERS-CoV RBD (MERS-CoV, UniProt K9N5Q8 367-606).
T1 sequence: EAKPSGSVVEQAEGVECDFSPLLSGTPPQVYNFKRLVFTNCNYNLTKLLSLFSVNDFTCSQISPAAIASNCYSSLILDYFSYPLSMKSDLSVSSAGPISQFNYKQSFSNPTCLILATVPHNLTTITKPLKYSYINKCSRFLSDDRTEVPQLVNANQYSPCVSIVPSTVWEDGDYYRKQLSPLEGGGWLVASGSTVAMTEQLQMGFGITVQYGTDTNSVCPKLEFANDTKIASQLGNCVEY
Briefly: BLI (Octet).

The target in a further assay is T2, HCoV-HKU1 S1 (HCoV-HKU1, UniProt Q5MQD0 13-760).
T2 construct: domain: S1
T2 sequence: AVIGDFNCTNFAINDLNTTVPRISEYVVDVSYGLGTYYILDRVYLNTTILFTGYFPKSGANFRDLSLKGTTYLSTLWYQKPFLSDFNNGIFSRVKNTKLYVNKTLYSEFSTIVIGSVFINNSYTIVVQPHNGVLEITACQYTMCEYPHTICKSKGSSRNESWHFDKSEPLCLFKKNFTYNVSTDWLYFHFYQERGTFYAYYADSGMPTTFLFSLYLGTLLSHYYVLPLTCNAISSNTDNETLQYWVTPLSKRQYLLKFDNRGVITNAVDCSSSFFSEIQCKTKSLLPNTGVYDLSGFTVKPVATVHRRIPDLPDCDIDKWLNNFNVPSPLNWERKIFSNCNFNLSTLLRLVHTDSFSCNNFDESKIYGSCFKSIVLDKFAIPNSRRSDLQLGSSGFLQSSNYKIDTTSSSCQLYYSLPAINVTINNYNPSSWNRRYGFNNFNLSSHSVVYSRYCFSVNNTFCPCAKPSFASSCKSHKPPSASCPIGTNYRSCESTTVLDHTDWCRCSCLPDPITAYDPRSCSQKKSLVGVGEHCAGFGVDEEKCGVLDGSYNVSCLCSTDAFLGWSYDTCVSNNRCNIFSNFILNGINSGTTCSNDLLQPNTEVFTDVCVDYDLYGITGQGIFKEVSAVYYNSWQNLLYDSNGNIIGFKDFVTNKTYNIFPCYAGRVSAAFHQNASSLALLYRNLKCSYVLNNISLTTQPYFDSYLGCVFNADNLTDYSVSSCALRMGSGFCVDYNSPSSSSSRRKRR
Briefly: BLI (Octet).

Assay [2] has as its target SARS-CoV-2 spike 'D614 or G614' (pseudovirus) (SARS-CoV-2, UniProt P0DTC2 14-1273). Briefly: cell-based or functional assay.

B1: No. 139 항체 (Full IgG) (antibody, V domains shown)
VH: QITLKESGPTLVKPTQTLTLTCSFSGFSLSTSGVGVGWIRQPPGKALEWLALIDWDDNKYHTTSLKTRLTISKDTSKNQVVLTMTNMDPVDTATYYCARIPGFLRYRNRYYYYGMDVWGQGTTVTVSS
VL: ELVLTQPPSVSAAPGQKVTISCSGSSSNIGNNYVSWYQQLPGTAPKLLIYDNNKRPSGIPDRFSGSKSGTSATLGITGLQTGDEADYYCGTWDSSLSAGVFGGGTELTVL
With B1, the “IC50, pseudovirus neutralisation” value in assay [1] stood at 0.378 ng/mL; in assay [2] it was 0.35 ng/mL. Further, the binding result with SARS-CoV S1, with MERS-CoV RBD and in the assay with HCoV-HKU1 S1 was “no binding” in each case.
